Data set [1] relates to MDA-MB-231. The data set is described as follows: Uptake after silencing LHRH-R gene in MDA-MB-231. The data set is classed as cell-based, human. As to conditions: MDA-MB-231, LHRH-R siRNA, 1 μM, 18 h. The procedure:
FIGS. 10A and 10B: Uptake of LD5-me-vc-PABC-MMAE (LM) after silencing LHRH-R in MDA-MB-231 cells. The cells were treated with LHRH-R siRNA and co-transfected with fluorescent labelled siRNA negative control as transfection efficiency signal (FAM-transfection control). LHRH-R negative control refers to MDA-MB-231 cells that were not transfected with LHRH-R siRNA and FAM-transfection control. (A) Silenced LHRH-R cells and negative control cells were treated with LM (1 μM) for 18 h and LM signal was detected by immunocytochemistry with specific LHRH binding of primary antibody labelled by Rhodamine-conjugated secondary antibody. Immunocytochemical images were captured by LEICA SPE2 confocal LSM. (B) The LM signal intensity in both silenced LHRH-R and negative control was measured by Fiji J software. […] The data was analysed by unpaired t-test with Welch's correction (**** p<0.0001). Error bars are standard deviations (STDV), n=8 (3 independent repeats).
To further examine the role of LHRH-R in the uptake of LD5-me-vc-PABC-MMAE, LHRH-R expression was blocked by silencing their gene in MDA-MB-231 (TNBC cell model). This study was performed by co-transfection of siRNAs (RNAi-Mate transfection reagent and siRNA, GNRHR-homo-2242, GNRHR-homo-2701, and scrambled RNA were from GenePharma) and a fluorescently labelled negative control siRNA (FAM transfection efficiency control was from GenePharma).

The subject of data set [2] is MDA-MB-231. The data set is described as follows: Receptor binding competitive assay (triptorelin pre-treatment, MTT). In kind it is cell-based, human. Particulars: MDA-MB-231 pre-treated with 100 µM of triptorelin (TRN) for 2 h. As for the experimental part: FIGS. 5A and 5B: Receptor binding competitive assay. MDA-MB-231 was pre-treated with triptorelin (TRN) and LM (LD5-mc-vc-PABC-MMAE) then the MTT assay was performed. (A) The IC50 value (nM) was calculated by non-linear regression (curve fit) for PC-3 and MDA-MB-231 with and without pre-treatment with triptorelin. (B) The cell viability in TRN-LM was assessed in comparison to LM in MDA-MB-231 (TNBC cell line). The cytotoxic effects of LM is reversed after pre-treatment with triptorelin indicating a significant role of LHRH-Rs in the mechanism of action of LM. Two-way ANOVA was performed followed by Sidak's multiple comparisons test (***p<0.00001). Error bars are standard deviations (STDV), n=8 (3 independent repeats).
Receptor binding competitive assay was performed to examine the association of cytotoxicity with binding to LHRH-Rs. TNBC cells (MDA-MB-231) were pre-treated with 100 µM of triptorelin (TRN) for 2 h to block the LHRH-R. The significant cytotoxic effects of LD5-mc-vc-PABC-MMAE (LM) was reversed after pre-treatment with TRN (FIGS. 5A and 5B).

Data set [3] concerns MDA-MB-231. The data set is described as follows: In vitro uptake in TNBC cells versus normal breast cells (confocal LSM). In kind it is cell-based, human. As to conditions: 1 μM, 18 h; MDA-MB-231 compared to normal breast cells (MCF-10A and HMEC). As for the experimental part: FIGS. 7A and 7B: In vitro uptake study of LD5-me-vc-PABC-MMAE in TNBC cell line and normal breast cells. (A) MDA-MB-231 as a TNBC cell model, MCF-10A and HMEC as normal breast cells were treated with 1 μM of LD5-me-vc-PABC-MMAE (LM) for 18 h. LM was stained using monoclonal primary antibody specific for LHRH and secondary antibody conjugated with Rhodamine and detected by LEICA SPE2 confocal LSM. (B) The LM signal intensity was measured by Fiji J software in normal breast cells (HMEC and MCF-10A) and TNBC cell model (MDA-MB-231). […] The signal intensity in these cell lines were assessed by one-way ANOVA followed by Tukey's multiple comparisons test (****p<0.0001). Error bars are standard deviations (STDV), n=8 (3 independent repeats).
The uptake of LD5-me-vc-PABC-MMAE by TNBC cells was examined using the TNBC cell line (MDA-MB-231) which overexpresses LHRH-R. The uptake was compared with normal breast cells (LHRH-R negative control). LD5-me-vc-PABC-MMAE was incubated with […] for 18 h, and intracellular uptake of the conjugate was monitored using confocal LSM (FIG. 7A).
This was supported by quantitative comparisons of the intracellular uptake of LD5-mc-vc-PABC-MMAE in LHRH-R positive and negative cells (FIG. 7B).

The test system of data set [4] is female NOD/SCID mice. The data set is described as follows: Phase I: single-dose MTD in mice. Particulars: for Body Weight: individual animals. In kind it is in vivo. As for the experimental part:
LD5-(mc-vc-PABC)-MMAE was administered IV to groups of 3 female NOD/SCID mice (23±3 g). Animals received an initial dose of 3 mg/kg. If the animals survived for 72 hours, the dose for the next cohort was increased. If one or more animals died, the dose for the next cohort was decreased. The testing stopped when all animals survived at the upper bound, or when two or three dose levels had been tested or when the upper or lower bound had been reached. […] Body weights were recorded pre-dose and at 72 hours after treatment. The animals were observed and mortality noted daily after compound administration for 3 days. Gross necropsy was performed on all animals without tissue collection. […] No mortality and body weight changes were noted, signifying the dose level was tolerated (Tables 2 and 3). The dose at 10 mg/kg was then determined for the following repeat-dose MTD study (Phase II).

Consider `CCNC(=O)[C@@H]1CCCN1C(=O)[C@H](CCCNC(=N)N)NC(=O)[C@H](CC(C)C)NC(=O)[C@@H](CCCCNC1CC(=O)N(CCCCCC(=O)N[C@H](C(=O)N[C@@H](CCCNC(N)=O)C(=O)Nc2ccc(COC(=O)N(C)[C@H](C(=O)N[C@H](C(=O)N(C)[C@@H]([C@@H](C)CC)[C@@H](CC(=O)N3CCC[C@H]3[C@H](OC)[C@@H](C)C(=O)N[C@H](C)[C@@H](O)c3ccccc3)OC)C(C)C)C(C)C)cc2)C(C)C)C1=O)NC(=O)[C@H](Cc1ccc(O)cc1)NC(=O)[C@H](CO)NC(=O)[C@H](Cc1c[nH]c2ccccc12)NC(=O)[C@H](Cc1c[nH]cn1)NC(=O)[C@@H]1CCC(=O)N1` (stereo partly shown) [LD5-mc-vc-PABC-MMAE], for which the “uptake after silencing the LHRH-R gene” value in data set [1] was “significantly reduced”. Also, in data set [2], the “cytotoxic effects after pre-treatment with triptorelin” value is listed as “reversed”. In addition, the intracellular uptake entry in data set [3] was “significantly higher uptake”. For the same molecule, the “adverse effects (acute toxic symptoms, autonomic effects)” value in data set [4] (3 and 10 mg/kg IV, 15 minutes, 1 and 2 hours) was “No significant adverse effects”. In addition, the “Mortality (death/test)” value in data set [4] (IV 3 mg/kg, 15 min) is given as 0/3; in data set [4] (IV 3 mg/kg, 1 hr), 0/3; in data set [4] (IV 3 mg/kg, 2 hr) it was 0/3; in data set [4] (IV 3 mg/kg, 24 hr) it was 0/3; in data set [4] (IV 3 mg/kg, 48 hr), 0/3; in data set [4] (IV 3 mg/kg, 72 hr), 0/3. Besides, the “Mortality (death/test)” value in data set [4] (IV 10 mg/kg, 15 min) is listed as 0/3; in data set [4] (IV 10 mg/kg, 1 hr) it was 0/3; in data set [4] (IV 10 mg/kg, 2 hr) it was 0/3; in data set [4] (IV 10 mg/kg, 24 hr), 0/3; in data set [4] (IV 10 mg/kg, 48 hr) it was 0/3; in data set [4] (IV 10 mg/kg, 72 hr), 0/3. For the same molecule, the “Body Weight” value in data set [4] (IV 3 mg/kg, 72 hr) is listed as 21 g; in data set [4] (IV 3 mg/kg, time 0 (pre-dose)), 21 g; in data set [4] (IV 10 mg/kg, time 0 (pre-dose)), 20 g.
